Test results published in patent US20240376168A1 (LETO LABORATORIES, published 2024).
Changes are numbered by the printed parent chain. Names and notes keep the numbering of the source.

T1: extracellular domain of human receptor β-Klotho with a C-terminal Poly-His tag (human, UniProt Q86Z14 1-996)
T1 construct: extracellular domain; Immobilised on an NTA chip at 1,000 RU; also called human β-Klotho protein; KLB; not shown: Poly-His tag at the C-terminus
T1 sequence (looked up): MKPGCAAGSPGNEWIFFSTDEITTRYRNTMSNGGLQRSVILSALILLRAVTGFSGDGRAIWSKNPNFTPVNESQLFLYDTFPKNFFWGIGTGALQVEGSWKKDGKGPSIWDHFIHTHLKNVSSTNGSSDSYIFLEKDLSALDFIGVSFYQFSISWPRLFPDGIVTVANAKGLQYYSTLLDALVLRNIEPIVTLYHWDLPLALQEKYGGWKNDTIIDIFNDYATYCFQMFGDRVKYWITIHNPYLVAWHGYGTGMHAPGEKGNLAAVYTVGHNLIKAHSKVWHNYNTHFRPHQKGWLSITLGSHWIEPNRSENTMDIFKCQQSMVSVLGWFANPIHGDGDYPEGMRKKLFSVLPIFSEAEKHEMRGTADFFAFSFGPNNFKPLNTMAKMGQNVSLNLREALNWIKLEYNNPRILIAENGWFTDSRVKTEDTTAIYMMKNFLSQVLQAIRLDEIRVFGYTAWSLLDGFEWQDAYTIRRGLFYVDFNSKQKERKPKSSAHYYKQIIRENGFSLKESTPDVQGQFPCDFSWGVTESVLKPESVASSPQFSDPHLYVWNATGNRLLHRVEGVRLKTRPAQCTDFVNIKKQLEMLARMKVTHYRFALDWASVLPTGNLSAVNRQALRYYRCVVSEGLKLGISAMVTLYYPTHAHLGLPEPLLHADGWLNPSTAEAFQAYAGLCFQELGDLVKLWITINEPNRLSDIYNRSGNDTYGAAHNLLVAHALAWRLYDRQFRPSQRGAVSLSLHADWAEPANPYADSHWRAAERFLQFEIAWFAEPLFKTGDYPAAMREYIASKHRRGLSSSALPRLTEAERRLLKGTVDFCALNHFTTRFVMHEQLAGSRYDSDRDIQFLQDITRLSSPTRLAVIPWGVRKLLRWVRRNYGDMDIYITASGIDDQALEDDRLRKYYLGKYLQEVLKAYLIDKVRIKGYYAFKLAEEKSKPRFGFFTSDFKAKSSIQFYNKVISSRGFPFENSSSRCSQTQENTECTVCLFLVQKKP

B1: FGF21 (121Q, 168L) mutant 1414 (ligand)
chain: HPIPDSSPLLQFGGQVRQRYLYTDDAQQTEAHLEIREDGTVGGAADQSPESLLQLKALKPGVIQILGVKTSRFLCQRPDGALYGSLHFDPEACSFRELLLEDGYNVYQSEAHGLPLHLPGQKSPHRDPAPRGPARFLPLPGLPPALPEPPGILAPQPPDVGSSDPLSLVGPSQGRSPSYAS
notes: Control that stands for wild-type FGF21; An alanine is added before His1 of mature FGF21; also called FGF21 control mutant 1414
B2: FGF21 (P171G) mutant 1407 (ligand)
chain: B1 chain with P171G
notes: also called FGF21 mutant P171G
B3: FGF21 (170C/173C) mutant 1411 (ligand)
chain: B1 chain with G170C, Q173C
modifications: disulfide bond introduced between 170C and 173C
notes: Only a trace amount of incorrect dimers is reported
B4: FGF21 (170C/Ins-172G/173C) mutant 1409 (ligand)
chain: HPIPDSSPLLQFGGQVRQRYLYTDDAQQTEAHLEIREDGTVGGAADQSPESLLQLKALKPGVIQILGVKTSRFLCQRPDGALYGSLHFDPEACSFRELLLEDGYNVYQSEAHGLPLHLPGQKSPHRDPAPRGPARFLPLPGLPPALPEPPGILAPQPPDVGSSDPLSLVCPGCQGRSPSYAS
modifications: intramolecular disulfide bond between C170 and C173
B5: FGF21 (170C/Ins-172S/173C) mutant 1413 (ligand)
chain: B4 chain with G172S
modifications: disulfide bond introduced between 170C and 173C
notes: A small number of incorrect dimers is reported
B6: FGF21 (170C/Ins-172A/173C) mutant 1412 (ligand)
chain: B4 chain with G172A
modifications: disulfide bond introduced between 170C and 173C
notes: as for B5
B7: FGF21 (Del-P171) mutant 1408 (ligand)
chain: HPIPDSSPLLQFGGQVRQRYLYTDDAQQTEAHLEIREDGTVGGAADQSPESLLQLKALKPGVIQILGVKTSRFLCQRPDGALYGSLHFDPEACSFRELLLEDGYNVYQSEAHGLPLHLPGQKSPHRDPAPRGPARFLPLPGLPPALPEPPGILAPQPPDVGSSDPLSLVGSQGRSPSYAS

Molecular target: T1, extracellular domain of human receptor …
Assay: SPR, Biacore-8K; His-tagged β-Klotho ECD on NTA chip, FGF21 mutant as analyte, kinetic fit
Experimental: An extracellular domain of a human receptor β-Klotho (a Poly-His tag was fused at a C-terminus) was expressed and purified in the present disclosure, and a sequence of the protein was acquired from the Uniprot database. An affinity assay was conducted with Biacore-8K. Specifically, a human β-Klotho protein was immobilized on an NTA chip at a fixed amount of 1,000 RU with PBS (including 0.05% Tween-20) as a flow buffer. An FGF21 mutant was allowed to flow through the chip at different concentrations to determine the binding of the FGF21 mutant to β-Klotho. Final data were fitted using kinetics, and a dissociation constant KD was calculated.

Kd [nM]	Binder
51.2	B1
42.5	B2
69.4	B3
59.4	B4
64.6	B5
69.9	B6
67.5	B7

Molecular target: β-Klotho overexpressed on HEK293 cells
Assay: cell-based or functional assay

Activity in β-Klotho-ERK cells (EC50) [nM]	Binder
0.85	B1
1.15	B2
0.999	B3
2.14	B4
2.09	B5
2.52	B6
1.48	B7
